How the values were obtained:
human plasma kallikrein [1] = target: T1, human plasma kallikrein (human, UniProt P03952 20-390; P03952 391-638); test: ELISA; signal on biotinylated plasma kallikrein divided by signal on streptavidin background
T1 construct: also called pKal; human pKal
Excerpt: Abbreviations used: “T/B” is the ELISA signal obtained using of the “target” (biotinylated plasma kallikrein) divided by the ELISA signal of the “background” (streptavidin); both of which were coated on microtiter plates. “nd” is not determined. The symbol “q” refers to the amber suppressible stop codon (TAG), which is translated as glutamine (Q) in strains of E. coli such as the TG1 cells that were used to express the Fab fragments.
T1 sequence (P03952 20-390, chain 1 of 2): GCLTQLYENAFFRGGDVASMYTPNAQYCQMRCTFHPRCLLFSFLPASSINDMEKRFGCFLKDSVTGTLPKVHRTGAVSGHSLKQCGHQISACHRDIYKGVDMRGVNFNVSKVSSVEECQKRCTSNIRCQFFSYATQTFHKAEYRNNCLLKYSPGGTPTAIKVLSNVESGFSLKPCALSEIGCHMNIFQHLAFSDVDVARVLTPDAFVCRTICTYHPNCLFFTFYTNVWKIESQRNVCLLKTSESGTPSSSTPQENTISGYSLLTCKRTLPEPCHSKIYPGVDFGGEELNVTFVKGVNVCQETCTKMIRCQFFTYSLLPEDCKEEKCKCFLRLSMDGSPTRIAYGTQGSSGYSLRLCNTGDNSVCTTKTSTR
T1 sequence (P03952 391-638, chain 2 of 2): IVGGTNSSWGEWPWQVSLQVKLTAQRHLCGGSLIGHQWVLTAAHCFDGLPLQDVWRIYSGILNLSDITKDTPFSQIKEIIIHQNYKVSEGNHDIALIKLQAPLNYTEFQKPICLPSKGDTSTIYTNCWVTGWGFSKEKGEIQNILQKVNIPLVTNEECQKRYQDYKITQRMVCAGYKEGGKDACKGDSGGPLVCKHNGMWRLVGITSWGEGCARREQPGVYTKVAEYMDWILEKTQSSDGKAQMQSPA

human plasma kallikrein [2] = target: T1, human plasma kallikrein; test: apparent Ki (Ki,app), inhibition of human pKal activity
human plasma kallikrein [3] = target: human plasma kallikrein (human, UniProt P03952 20-390; P03952 391-638); test: cell-based or functional assay
Target sequence in this assay (P03952 20-390, chain 1 of 2): as the sequence (P03952 20-390, chain 1 of 2) above
Target sequence in this assay (P03952 391-638, chain 2 of 2): as the sequence (P03952 391-638, chain 2 of 2) above

Binder | ELISA (T/B) (human plasma kallikrein [1]) [T/B ratio] | Ki (human plasma kallikrein [2]) [nM] | % inhibition at 10 nM (human plasma kallikrein [3]) [%]
M152-A12 (antibody, V domains shown) VH: EVQLLESGGGLVQPGGSLRLSCAASGFTFSPYFMGWVRQAPGKGLEWVSGIGPSGGSTTYADSVKGRFTISRDNSKNTLYLQMNSLRAEDTAVYYCAREGPPYSSGWYRGLRQYHFDYWGQGTLVTVSS VL: DIQMTQSPSSLSASVGDRVTITCRASQSISSYLSWYQQRPGKAPNLLIYAASSLQSGVPSRFSGSGSGTDFTLTISSLQPEDFATYYCQQSISIPRTFGQGTKVEVK | 19 |  | 
M6-D09 (antibody, V domains shown) VH: EVQLLESGGGLVQPGGSLRLSCAASGFTFSFYYMVWVRQAPGKGLEWVSVIYPSGGITVYADSVKGRFTISRDNSKNTLYLQMNSLRAEDTAVYYCARDKWAVMPPYYYYAMDVWGQGTTVTVSS VL: DIQMTQSPSSLSASVSDRVTITCRASQSIRNYLNWYQQKPSKAPNLLIYAASTLQSGVPARFSGSGSGTDFTLTISSLQPEDFATYYCQQLSGYPHTFGQGTKLEIK | 39.9 | 5.9 | 
M207-A04 (Fab, V domains shown) VH: EVQLLESGGGLVQPGGSLRLSCAASGFTFSHYLMTWVRQAPGKGLEWVSYISPSGGHTIYADSVKGRFTISRDNSKNTLYLQMNSLRAEDTAVYYCARVARGIAARSRTSYFDYWGQGTLVTVSS VL: DIQMTQSPGTLSLSPGERATLSCRTSQFVNSNYLAWYQQTPGQAPRLLIYGASSRATGIPDRFSGTGYGTDFTLTISRLEPEDYGTYYCQQSSRTPWTFGQGTRVEIK |  |  | 90.9
M160-G12 (antibody, V domains shown) VH: EVQLLESGGGLVQPGGSLRLSCAASGFTFSHYLMTWVRQAPGKGLEWVSYISPSGGHTIYADSVKGRFTISRDNSKNTLYLQMNSLRAEDTAVYYCARVARGIAARSRTSYFDYWGQGTLVTVSS VL: DIQMTQSPSFLSASVGDRVTITCRASQGISSYLAWYQQKPGKAPKLLIYAASTLQSGVPSRFSGSGSGTEFTLTISSLQPEDFATYYCQQLNSYPLTFGGGTKVEIK | 38.3 |  | 
M209-D12 (Fab, V domains shown) VH: EVQLLESGGGLVQPGGSLRLSCAASGFTFSHYLMTWVRQAPSKGLEWVSYISPSGGHTIYADSVKGRFTISRDNSKNTLYLQMNSLRAEDTAVYYCATVARGIAARSRTSYFDQWGQGTLVTVSS VL: DIQMTQSPGTLSLSPGERATLSCRTSQFVNSNYLAWYQQTPGQAPRLLIYGASSRATGIPDRFSGTGYGTDFTLTISRLEPEDYGTYYCQQSSRTPWTFGQGTRVEIK |  |  | 85.4
M209-H03 (Fab, V domains shown) VH: EVQLLESGGGLVQPGGSLRLSCAASGFTFSHYLMTWVRQAPSKGLEWVSYISPSGGHTIYADSVKGRFTISRDNSKNTLYLQMNSLRAEDTAVYYCARVAQGIAARSRTTQFDYWGQGTLVTVSS VL: DIQMTQSPGTLSLSPGERATLSCRTSQFVNSNYLAWYQQTPGQAPRLLIYGASSRATGIPDRFSGTGYGTDFTLTISRLEPEDYGTYYCQQSSRTPWTFGQGTRVEIK |  |  | 82.6
M209-B11 (Fab, V domains shown) VH: EVQLLESGGGLVQPGGSLRLSCAASGFTFSHYLMTWVRQAPGKGLEWVSYISPSGGHTIYADSVKGRFTISRDNSKNTLYLQMNSLRAEDTAVYYCARVARGIAARSRTSYIDQWGQGTLVTVSS VL: DIQMTQSPGTLSLSPGERATLSCRTSQFVNSNYLAWYQQTPGQAPRLLIYGASSRATGIPDRFSGTGYGTDFTLTISRLEPEDYGTYYCQQSSRTPWTFGQGTRVEIK |  |  | 87.3
M209-H07 (Fab, V domains shown) VH: EVQLLESGGGLVQPGGSLRLSCAASGFTFSHYLMTWVRQAPGKGLEWVSYISPSGGHTIYADSVKGRFTISRDNSKNTLYLQMNSLRAEDTAVYYCARVARGIAARQRTSYYDYWGQGTLVTVSS VL: DIQMTQSPGTLSLSPGERATLSCRTSQFVNSNYLAWYQQTPGQAPRLLIYGADDRATGIPDRFSGTGYGTDFTLTISRLEPEDYGTYYCQQSSRTPWTFGQGTRVEIK |  |  | 76.1
M162-A04 (antibody, V domains shown) VH: EVQLLESGGGLVQPGGSLRLSCAASGFTFSHYIMMWVRQAPGKGLEWVSGIYSSGGITVYADSVKGRFTISRDNSKNTLYLQMNSLRAEDTAVYYCAYRRTGIPRRDAFDIWGQGTMVTVSS VL: DIQMTQSPSTLSASVGDRVTITCRASQSISSWLAWYQQKPGKAPNLLIYKASTLESGVPSRFSGSGSGTEFTLTISSLQPDDFATYYCQQYNTYWTFGQGTKVEIK | 11.4 |  | 
M161-C11 (antibody, V domains shown) VH: EVQLLESGGGLVQPGGSLRLSCAASGFTFSDYAMKWVRQAPGKGLEWVSSISSSGGVTQYADSVKGRFTISRDNSKNTLYLQMNSLRAEDTAVYYCAREEDYSSSWYSRRFDYYYGMDVWGQGTTVTVSS VL: QSALTQPPSVSVSPGQTASITCSGDKLGDKYVSWYQQRPGQSPVLVIYQDTKRPSGIPERFSGSNSGNTATLTISGTQAVDEADYYCQAWDSSTYVFGGGTKVTVL | 41.8 |  | 
M137-E12 (antibody, V domains shown) VH: EVQLLESGGGLVQPGGSLRLSCAASGFTFSDYRMQWVRQAPGKGLEWVSVIVPSGGNTMYADSVKGRFTISRDNSKNTLYLQMNSLRAEDTAVYYCARGGPGSSIAARPAPTGYYGMDVWGQGTTVTVSS VL: QSVLIQPPSVSGIPGQRVTISCSGNNSNFGSNTVTWYQQLPGTAPKLLIYSDSRRPSGVPDRFSGSRSDTSASLAISGLQSEDEAEYHCAAWDDSLNGVFGGGTKLTVL | 4.5 | 79 | 
M145-D11 (antibody, V domains shown) VH: EVQLLESGGGLVQPGGSLRLSCAASGFTFSHYRMSWVRQAPGKGLEWVSSIYPSGGRTVYADSVKGRFTISRDNSKNTLYLQMNSLRAEDTAVYYCAKDKFEWRLLFRGIGNDAFDIWGQGTMVTVSS VL: QSVLTQPPSVSVSPGQTASITCSGDKLGDKYTSWYQQRPGQSPVLVIYQDIKRPSGIPERFSGSNSGNTATLTISGTQAMDEADYYCQAWDSPNARVFGSGTKVTVL | 40 |  | 
M76-D01 (antibody, V domains shown) VH: EVQLLESGGGLVQPGGSLRLSCAASGFTFSFYAMHWVRQAPGKGLEWVSGIVPSGGRTHYADSVKSRFTISRDNSKNTLYLQMNSLRAEDTAVYYCATDSSGSPNPLFDYWGQGTLVTVSS VL: DIVMTQTPPSLPVNPGEPASISCRSSQSLSDDGNTYLDWYLQRPGQSPQLLIHTLSYRASGVPDRFSGSGSGTDFTLKISRVEAEDVGVYYCMQGTHWPPTFGQGTKVEIK | 11.2 | < 100 | 
M146-E12 (antibody, V domains shown) VH: EVQLLESGGGLVQPGGSLRLSCAASGFTFSRYIMHWVRQAPGKGLEWVSSISPSGGLTSYADSVKGRFTISRDNSKNTLYLQMNSLRAEDTAVYYCAREFENAYHYYYYGMDVWGQGTTVTVSS VL: DIQMTQSPSSLSASVGDRVTITCRASGDIGNALGWYQQKPGKAPRLLISDASTLQSGVPLRFSGSGSGTEFTLTISSLQPEDFATYYCLQGYNYPRTFGQGTKLEIR | 40.6 |  | 
M145-D01 (antibody, V domains shown) VH: EVQLLESGGGLVQPGGSLRLSCAASGFTFSYYHMSWVRQAPGKGLEWVSVISPSGGSTKYADSVKGRFTISRDNSKNTLYLQMNSLRAEDTAVYYCARGGSSDYAWGSYRRPYYFDYWGQGTLVTVSS VL: DIQMTQSPATLSLSPGERATLSCRASQSVSSYLAWYQQKPGQAPRLLIYDASNRATGIPARFSGSGSGTDFTLTISSLEPEDFAVYYCQQRSNWPRGFTFGPGTKVDIK | 6.2 |  | 
M7-B04 (antibody, V domains shown) VL: QSALTQPASVSGSPGQSITISCTGTNSDVGNYNLVSWYQQHPGEAPKLLIYEVNKRPSGVSNRFSGSKSGNTASLTISGLQAEDEADYLCCSYAGNRNFYVFGAGTKVTVL VH: EVQLLESGGGLVQPGGSLRLSCAASGFTFSWYSMVWVRQAPGKGLEWVSSISPSGGLTNYADSVKGRFTISRDNSKNTLYLQMNSLRAEDTAVYYCARHTAARPFYYYYMDVWSKSTTVTVSSASTKGPSVFPLAPSSKS | 4.1 | 54 | 
M10-F10 (antibody, V domains shown) VH: EVQLLESGGGLVQPGGSLRLSCAASGFTFSFYNMNWVRQAPGKSLEWVSSISPSGGETNYADSVKGRFTISRDNSKNTLYLQMNSLRAEDTAVYYCARGGGAYRNNWWGGFDIWGLGTMVTVSS VL: DIQMTQSPSSLSASVGDRVTITCRASQSISVYLNWYQHKPGKAPKLLIYGASNLQFGVPSRFSGSGYGTDFTLTISSLQPEDFATYHCQQTFSLFTFGGGTKVEIK | 39.2 | < 100 | 
M12-B05 (antibody, V domains shown) VH: EVQLLESGGGLVQPGGSLRLSCAASGFTFSWYTMVWVRQAPGKGLEWVSYIYPSGGATFYADSVKGRFTISRDNSKNTLYLQMNSLRAEDTAVYYCAMGSYDYIWGFYSDHWGQGTLVTVSS VL: QSALTQPPTVSVSPGQTARITCSGNKLGDKYVAWYQQKPGQSPMLVIYQDTKRPSRVSERFSGSNSANTATLSISGTQALDEADYYCQAWDSSIVIFGGGTRLTVL | 38.4 | 4.9 | 
M29-D09 (antibody, V domains shown) VH: EVQLLESGGGLVQPGGSLRLSCAASGFTFSWYTMVWVRQAPGKGLEWVSYIYPSGGATFYADSVKGRFTISRDNSKNTLYLQMNSLRAEDTAVYYCAMGSYDYIWGFYSDHWGQGTLVTVSS VL: QSALTQPPTVSVSPGQTARITCSGNKLGDKYVAWYQQKPGQSPMLVIYQDTKRPSAIPERFSGSNSANTATLSISGTQALDEADYYCQAWDSSIVIFGGGTRLTVL | 47.5 | 0.7 | 
M29-E09 (antibody, V domains shown) VH: EVQLLESGGGLVQPGGSLRLSCAASGFTFSWYEMGWVRQAPGKGLEWVSSIYSSGGGTMYADSVKGRFTISRDNSKNTLYLQMNSLRAEDTAVYYCARNPQYSGYDRSLSDGAFDIWGQGTMVTVSS VL: QYELTQPPSVSVSPSQTATITCSGDNLGNKYNSWYQQKPGQSPLLVIYQDTKRPSAIPERFSGSNSGNTAILTISGTQAMDEADYYCQAWDGNVVFGGGTKLTVL | 28.8 | 11 | 
